The values that follow come from patent publication US20110300229A1, “TREATING OR PREVENTING ROTAVIRUS INFECTION” (FONTERRA CO-OPERATIVE GROUP LIMITED, priority 2007, published 2011).

In test [1] the test system is human Wa rotavirus. To be noted: cited from earlier work.
In test [2] the test system is human rotavirus strain Wa. Put plainly: Rotavirus infection assay in HT29 cells (crystal violet, % uninfected cells). It is filed as cell-based. On the procedure: The HT29 cell line was used to propagate the human rotavirus strain Wa (neuraminidase resistant) in the presence of 1 μg/ml trypsin in Dulbecco's minimal essential medium (DMEM) supplemented with 10% foetal calf serum and penicillin/streptomycin (100 μg/ml/100 units/ml). Rotavirus was harvested by freeze thawing twice, spun at 750 g to remove cell debris and stored at −80° C. The rotavirus was assayed and found to contain […] plaque forming units (pfu)/ml.
The infection assay used was based on a number of published assays (Scott et al 1979; Smith et al 1979; Guarino et al 1996; Superb et al 2001). Confluent HT29 cells grown in DMEM (seeded at 3×10^5/ml in 96 well plates) were washed twice in sterile PBS. Doubling dilutions of each of the products to be screened (initial concentration 5 mg/ml) were made in the plate in 50 μl volumes of DMEM. Virus was added (10^4 pfu/well) to all wells except the cells only control and plates were then incubated for two hours in 5% CO2 at 37° C. Other controls included virus plus cells, lipids only, pure GM3 and pure GD3. Following the two-hour incubation trypsin was added to all the wells containing virus at a concentration of 2 μg/ml—this step cleaves VP4 to polypeptides VP8 and VP5 and is needed for the virion to penetrate into the cells' interior. Plates were incubated at 37° C. in 5% CO2 for seven days and were checked daily for cytopathic effect in the virus only control wells. Media was removed and plates washed in sterile PBS, air-dried and fixed with methanol for one minute. Plates were air dried and then stained with 100 μl/well of 1% crystal violet (351884W, BDH, England) for five minutes. Plates were washed four times with sterile water to remove excess stain. 100 μl of acetic acid per well was added to solubilise the stain and absorbance was read at a wavelength of 595 nm in a Biorad ELISA plate reader. Each sample was assayed on a minimum of three separate occasions and the percentage of uninfected cells calculated.
Statistical analysis was performed using an unpaired Student t test (InStat for MacIntosh) to compare the effect of the lipid products derived from bovine milk with the virus only control at the lowest dilution of the product.

Marks after values point to notes of the source that are not given here.

B1: bovine lactadherin: bovine milk fat globule membrane glycoprotein, cited from Kvistgaard et al, 2004 (protein, UniProt Q95114 19-427, looked up)
Lactadherin: ASGDFCDSSLCLHGGTCLLNEDRTPPFYCLCPEGFTGLLCNETEHGPCFPNPCHNDAECQVTDDSHRGDVFIQYICKCPLGYVGIHCETTCTSPLGMQTGAIADSQISASSMHLGFMGLQRWAPELARLHQTGIVNAWTSGNYDKNPWIQVNLMRKMWVTGVVTQGASRAGSAEYLKTFKVAYSTDGRQFQFIQVAGRSGDKIFIGNVNNSGLKINLFDTPLETQYVRLVPIICHRGCTLRFELLGCELNGCTEPLGLKDNTIPNKQITASSYYKTWGLSAFSWFPYYARLDNQGKFNAWTAQTNSASEWLQIDLGSQKRVTGIITQGARDFGHIQYVAAYRVAYGDDGVTWTEYKDPGASESKIFPGNMDNNSHKKNIFETPFQARFVRIQPVAWHNRITLRVELLGC
Consider B1, for which, in test [1], the “prevention of human Wa rotavirus infection in vitro” value (from here on “prevention”) is on record as “could not prevent”.

B2: bovine MUC1 mucin: bovine milk mucin, cited from Kvistgaard et al, 2004 (protein, UniProt Q8WML4 23-580, looked up)
Mucin-1: NVPTLTTSDSINPRRTTPVSTTQSSPTSSPTKETSWSTTTTLLTASSPAPSPAASPGHDGASTPTSSPAPSPAASPGHDGASTPTSSPAPSPAASPGHDGASTPTSSPAPSPAASPGHDGASTPTSSPAPSPAASPGHNGTSSPTGSPAPSPAASPGHDGASTPTSSPAPSPAASPGHNGTSSPTGSPAPSPAASPGHDGASTPTSSPAPSPAASPGHNGTSSPTGSPAPSPTASPGHDSAPSLTSSPAPSPTASPGQHGASSPTSSDTSSMTTRSMSSSMVTSAHKGTSSRATMTPVSKGTPSSVPSSETAPTAASHITRTAASSPSIALSTSSNPKTSQQLSVRVSLYFLSFRITNLQFNSSLENPQTSYYQELQRSIWGLILQIYKQRDFLGLSEIKFRPGSVVVELTLAFREGTTAEWVKAQFSQLEAHAASYNLTISGVSVYSAPFPSSAQAGSGVPGWGIALLVLVCVLVALAIIYLIALVVCQCGRKKCEQLDVFPTLDAYHPMSEYSTYHTHGRYVPPGSTKRSPYEEVSAGNGGSNLSYTNLAATSANL
For the molecule B2, the “prevention” value in test [1] is given as “could not prevent”.

B3: bovine lactoferrin: bovine milk protein, result cited from Kvistgaard et al, 2004 (protein, UniProt P24627 20-708, looked up)
Lactotransferrin: APRKNVRWCTISQPEWFKCRRWQWRMKKLGAPSITCVRRAFALECIRAIAEKKADAVTLDGGMVFEAGRDPYKLRPVAAEIYGTKESPQTHYYAVAVVKKGSNFQLDQLQGRKSCHTGLGRSAGWIIPMGILRPYLSWTESLEPLQGAVAKFFSASCVPCIDRQAYPNLCQLCKGEGENQCACSSREPYFGYSGAFKCLQDGAGDVAFVKETTVFENLPEKADRDQYELLCLNNSRAPVDAFKECHLAQVPSHAVVARSVDGKEDLIWKLLSKAQEKFGKNKSRSFQLFGSPPGQRDLLFKDSALGFLRIPSKVDSALYLGSRYLTTLKNLRETAEEVKARYTRVVWCAVGPEEQKKCQQWSQQSGQNVTCATASTTDDCIVLVLKGEADALNLDGGYIYTAGKCGLVPVLAENRKSSKHSSLDCVLRPTEGYLAVAVVKKANEGLTWNSLKDKKSCHTAVDRTAGWNIPMGLIVNQTGSCAFDEFFSQSCAPGADPKSRLCALCAGDDQGLDKCVPNSKEKYYGYTGAFRCLAEDVGDVAFVKNDTVWENTNGESTADWAKNLNREDFRLLCLDGTRKPVTEAQSCHLAVAPNHAVVSRSDRAAHVKQVLLHQQALFGKNGKNCPDKFCLFKSETKNLLFNDNTECLAKLGGRPTYEEYLGTEYVTAIANLKKCSTSPLLEACAFLTR
For the molecule B3, the “prevention” value in test [1] is listed as “could not prevent”.

B4: Lactoferrin: lactoferrin provided by Fonterra Co-operative Group Limited; comparative material (protein, UniProt P24627 20-708, looked up)
Lactotransferrin: B3 Lactotransferrin
With B4, the “Percentage of HT29 cells uninfected by rotavirus” value is 60 +/− 8 ** % in test [2] (0.3125 mg/ml); 65 +/− 8 *** % in test [2] (0.625 mg/ml); 73 +/− 12 *** % in test [2] (1.25 mg/ml); 87 +/− 4 *** % in test [2] (2.5 mg/ml); 67 +/− 4 *** % in test [2] (5 mg/ml).
